Target: the molecule itself
Assay: non-reducing SDS-PAGE and immunoblot

B1: His-tagged MUC1-C cytoplasmic domain (domain or fragment, human, UniProt P15941 1182-1255, looked up)
chain: AVCQCRRKNYGQLDIFPARDTYHPMSEYPTYHTHGRYVPPSSTDRSPYEKVSAGNGGSSLSYTNPAVAATSANL
binding result: binds

Reference: PMC3326351 (International Journal of Oncology, 2011)
